Measured values reported in the RNAGym collection of RNA variant scans (doi:10.7554/elife.90254).

B1: LINE1-mini (parent)
chain: GGCAGAGCUCAACACAGCGUGGCAAAGUGGCUGUGGCUAGACUGCC

Variants of: B1
Experiment: self-cleavage, relative activity (ratio to wild type); higher = more cleavage; in vitro, sequencing; the parent is a self-cleaving ribozyme
Work on GGGAGAGCUCAACACAGCGUGGCAAAGUGGCUGUGGUUAGACUGCC [C3G C37U] yielded a self-cleavage of 0.5. Variant GGGAGAGCUCAACACAGCGUGGCAAAGUGGCUGUGGGUAGACUGCC [C3G C37G] has a self-cleavage of 0.13. Work on GGGAGAGCUCAACACAGCGUGGCAAAGUGGCUGUGGAUAGACUGCC [C3G C37A] yielded a self-cleavage of 0.29. Work on GGGAGAGCUCAACACAGCGUGGAAAAGUGGCUGUGGCUAGACUGCC [C3G C23A] yielded a self-cleavage of 0.47. In the case of GGGAGAGCUCAACACAGCGUGGGAAAGUGGCUGUGGCUAGACUGCC [C3G C23G], the self-cleavage is reported as 0.2. GGGAGAGCUCAACACAGCGUGGUAAAGUGGCUGUGGCUAGACUGCC [C3G C23U] gave a self-cleavage of 0.81. GGAAGAGCUCAACACAGCGUGGCAAAGUGGCUCUGGCUAGACUGCC [C3A G33C] gave a self-cleavage of 0.1. In the case of GGAAGAGCUCAACACAGCGUGGCAAAGUGGCUAUGGCUAGACUGCC [C3A G33A], the self-cleavage is reported as 0.37. GGAAGAGCUCAACACAGCGUGGCAAAGUGGCUUUGGCUAGACUGCC [C3A G33U] showed a self-cleavage of 0.15. GGGAGAGCUGAACACAGCGUGGCAAAGUGGCUGUGGCUAGACUGCC [C3G C10G] showed a self-cleavage of 0.04. For GGGAGAGCUAAACACAGCGUGGCAAAGUGGCUGUGGCUAGACUGCC [C3G C10A], the self-cleavage was 0.05. In the case of GGGAGAGCUUAACACAGCGUGGCAAAGUGGCUGUGGCUAGACUGCC [C3G C10U], the self-cleavage is reported as 0.19. Variant GGAAGAGCGCAACACAGCGUGGCAAAGUGGCUGUGGCUAGACUGCC [C3A U9G] has a self-cleavage of 0.57. Variant GGAAGAGCCCAACACAGCGUGGCAAAGUGGCUGUGGCUAGACUGCC [C3A U9C] has a self-cleavage of 0.05. For GGAAGAGCACAACACAGCGUGGCAAAGUGGCUGUGGCUAGACUGCC [C3A U9A], the self-cleavage was 0.59. For GGAAGAGCUCAACACAGCGUGGCAAAGUGGCUGUGGCAAGACUGCC [C3A U38A], the self-cleavage was 0.34. Work on GGAAGAGCUCAACACAGCGUGGCAAAGUGGCUGUGGCGAGACUGCC [C3A U38G] yielded a self-cleavage of 0.51. Variant GGAAGAGCUCAACACAGCGUGGCAAAGUGGCUGUGGCCAGACUGCC [C3A U38C] has a self-cleavage of 0.26. With GGAAGAGCUCAACACAGCGUGGCAAAGUGGCUGUGGCUAGACCGCC [C3A U43C] the self-cleavage was 0.28. Variant GGAAGAGCUCAACACAGCGUGGCAAAGUGGCUGUGGCUAGACAGCC [C3A U43A] has a self-cleavage of 0.39. Variant GGAAGAGCUCAACACAGCGUGGCAAAGUGGCUGUGGCUAGACGGCC [C3A U43G] has a self-cleavage of 0.04. With GGAAGAGCUCAACACAGCGUGGCAAAGUGGCUGUCGCUAGACUGCC [C3A G35C] the self-cleavage was 0.18. For GGAAGAGCUCAACACAGCGUGGCAAAGUGGCUGUAGCUAGACUGCC [C3A G35A], the self-cleavage was 0.35. For GGAAGAGCUCAACACAGCGUGGCAAAGUGGCUGUUGCUAGACUGCC [C3A G35U], the self-cleavage was 0.59. GGGAGUGCUCAACACAGCGUGGCAAAGUGGCUGUGGCUAGACUGCC [C3G A6U] gave a self-cleavage of 0.79. For GGGAGCGCUCAACACAGCGUGGCAAAGUGGCUGUGGCUAGACUGCC [C3G A6C], the self-cleavage was 0.27. GGGAGGGCUCAACACAGCGUGGCAAAGUGGCUGUGGCUAGACUGCC [C3G A6G] showed a self-cleavage of 0.08. GGGAGAGCUCAACACUGCGUGGCAAAGUGGCUGUGGCUAGACUGCC [C3G A16U] gave a self-cleavage of 0.18. GGGAGAGCUCAACACGGCGUGGCAAAGUGGCUGUGGCUAGACUGCC [C3G A16G] gave a self-cleavage of 0.23. With GGGAGAGCUCAACACCGCGUGGCAAAGUGGCUGUGGCUAGACUGCC [C3G A16C] the self-cleavage was 0.12. For GGGAGAGCUCAACACAGGGUGGCAAAGUGGCUGUGGCUAGACUGCC [C3G C18G], the self-cleavage was 0.15. For GGGAGAGCUCAACACAGUGUGGCAAAGUGGCUGUGGCUAGACUGCC [C3G C18U], the self-cleavage was 0.54. Variant GGGAGAGCUCAACACAGAGUGGCAAAGUGGCUGUGGCUAGACUGCC [C3G C18A] has a self-cleavage of 0.17. Variant GGGAGAGCUCAACACAGCGUGGCAAAGUGGCUGUGGCUAGACUGUC [C3G C45U] has a self-cleavage of 0.33. Work on GGGAGAGCUCAACACAGCGUGGCAAAGUGGCUGUGGCUAGACUGAC [C3G C45A] yielded a self-cleavage of 0.45. For GGGAGAGCUCAACACAGCGUGGCAAAGUGGCUGUGGCUAGACUGGC [C3G C45G], the self-cleavage was 1.97. In the case of GGAAGAGCUCAACACAGCGGGGCAAAGUGGCUGUGGCUAGACUGCC [C3A U20G], the self-cleavage is reported as 0.31. In the case of GGAAGAGCUCAACACAGCGCGGCAAAGUGGCUGUGGCUAGACUGCC [C3A U20C], the self-cleavage is reported as 0.19. With GGAAGAGCUCAACACAGCGAGGCAAAGUGGCUGUGGCUAGACUGCC [C3A U20A] the self-cleavage was 0.38. With GGGAGAGCUCAACUCAGCGUGGCAAAGUGGCUGUGGCUAGACUGCC [C3G A14U] the self-cleavage was 0.32. Variant GGGAGAGCUCAACGCAGCGUGGCAAAGUGGCUGUGGCUAGACUGCC [C3G A14G] has a self-cleavage of 1.31. For GGGAGAGCUCAACCCAGCGUGGCAAAGUGGCUGUGGCUAGACUGCC [C3G A14C], the self-cleavage was 0.06. For GGGAGAGCUCCACACAGCGUGGCAAAGUGGCUGUGGCUAGACUGCC [C3G A11C], the self-cleavage was 0.04. In the case of GGGAGAGCUCGACACAGCGUGGCAAAGUGGCUGUGGCUAGACUGCC [C3G A11G], the self-cleavage is reported as 0.09. With GGGAGAGCUCUACACAGCGUGGCAAAGUGGCUGUGGCUAGACUGCC [C3G A11U] the self-cleavage was 0.03. Variant GGAAGAGCUCAACACAGCGUGGCAAAGUUGCUGUGGCUAGACUGCC [C3A G29U] has a self-cleavage of 0.71. In the case of GGAAGAGCUCAACACAGCGUGGCAAAGUCGCUGUGGCUAGACUGCC [C3A G29C], the self-cleavage is reported as 0.25. GGAAGAGCUCAACACAGCGUGGCAAAGUAGCUGUGGCUAGACUGCC [C3A G29A] showed a self-cleavage of 0.51. GGAAGAGCUCAACACAGCGUGGCAAAGUGGCUGUGGCUAGACUACC [C3A G44A] showed a self-cleavage of 0.91. GGAAGAGCUCAACACAGCGUGGCAAAGUGGCUGUGGCUAGACUUCC [C3A G44U] gave a self-cleavage of 2.11. Work on GGAAGAGCUCAACACAGCGUGGCAAAGUGGCUGUGGCUAGACUCCC [C3A G44C] yielded a self-cleavage of 0.86. For GGGAGAGCUCAACACAGCGUGGCUAAGUGGCUGUGGCUAGACUGCC [C3G A24U], the self-cleavage was 0.72. For GGGAGAGCUCAACACAGCGUGGCGAAGUGGCUGUGGCUAGACUGCC [C3G A24G], the self-cleavage was 0.5. In the case of GGGAGAGCUCAACACAGCGUGGCCAAGUGGCUGUGGCUAGACUGCC [C3G A24C], the self-cleavage is reported as 0.35. GGAAGAGCUCAACACAGCGUGGCAAAGAGGCUGUGGCUAGACUGCC [C3A U28A] gave a self-cleavage of 0.32. For GGAAGAGCUCAACACAGCGUGGCAAAGCGGCUGUGGCUAGACUGCC [C3A U28C], the self-cleavage was 0.32.
